Reference: patent US20240270865A1 (INNATE PHARMA, published 2024)

B1: H2L2 (antibody, human IgG1, V domains shown)
VH: QIQLVQSGAEVKKPGASVKVSCKASGYAFTSYNMYWVRQAPGQSLEWMGYIDPYNGGSSYNLTFKGRVTITVDKSASTAYMELSSLRSEDTAVYYCARGYGNYKAWFAYWGQGTLVTVSS
VL: DIQMTQSPSSLSASVGDRVTITCKASQSVSNDVAWYQQKPGKAPKLLIYYASTRYTGVPDRFSGSGYGTDFTFTISSLQPEDIATYYCQQDYSSLTFGQGTKLEIK
notes: also called H2 variant
B2: H1L3 (antibody, human IgG1, V domains shown)
VH: QIQLVQSGAEVKKPGASVKVSCKASGYTFTSYNMYWVRQAPGQRLEWMGYIDPYNGGSSYNLTFKGRVTITRDKSASTAYMELSSLRSEDTAVYYCARGYGNYKAWFAYWGQGTLVTVSS
VL: DVQMTQSPSSLSASVGDRVTITCKASQSVSNDVAWYQQKPGKAPKLLIYYASTRYTGVPDRFSGSGYGTDFTFTISSLQPEDIATYYCQQDYSSLTFGQGTKLEIK
notes: also called H1 variant
B3: H1L1 (antibody, human IgG1, V domains shown)
VH: QIQLVQSGAEVKKPGASVKVSCKASGYTFTSYNMYWVRQAPGQRLEWMGYIDPYNGGSSYNLTFKGRVTITRDKSASTAYMELSSLRSEDTAVYYCARGYGNYKAWFAYWGQGTLVTVSS
VL: DIQMTQSPSSLSASVGDRVTITCKASQSVSNDVAWYQQKPGKAPKLLIYYASTRYTGVPSRFSGSGYGTDFTFTISSLQPEDIATYYCQQDYSSLTFGQGTKLEIK
notes: also called H1 variant
B4: H1L4 (antibody, human IgG1, V domains shown)
VH: QIQLVQSGAEVKKPGASVKVSCKASGYTFTSYNMYWVRQAPGQRLEWMGYIDPYNGGSSYNLTFKGRVTITRDKSASTAYMELSSLRSEDTAVYYCARGYGNYKAWFAYWGQGTLVTVSS
VL: DVQMTQSPSSLSASVGDRVTITCKASQSVSNDVAWYQQKPGKAPKLLIYYASTRYTGVPDRFSGSGYGTDFTFTISSLQPEDIATYFCQQDYSSLTFGQGTKLEIK
notes: also called H1 variant
B5: H3L1 (antibody, human IgG1, V domains shown)
VH: QIQLVQSGAEVKKPGASVKVSCKASGYAFTSYNMYWVRQAPGQSLEWIGYIDPYNGGSSYNLTFKGKATITVDKSASTAYMELSSLRSEDTAVYYCARGYGNYKAWFAYWGQGTLVTVSS
VL: DIQMTQSPSSLSASVGDRVTITCKASQSVSNDVAWYQQKPGKAPKLLIYYASTRYTGVPSRFSGSGYGTDFTFTISSLQPEDIATYYCQQDYSSLTFGQGTKLEIK
notes: also called H3 variant
B6: H4L2 (antibody, human IgG1, V domains shown)
VH: QIQLVQSGAEVKKPGASVKVSCKASGYAFASYNMYWVRQAPGQSLEWIGYIDPYNGGSSYNLTFKGKATLTVDKSASTAYMELSSLRSEDTAVYYCARGYGNYKAWFAYWGQGTLVTVSS
VL: DIQMTQSPSSLSASVGDRVTITCKASQSVSNDVAWYQQKPGKAPKLLIYYASTRYTGVPDRFSGSGYGTDFTFTISSLQPEDIATYYCQQDYSSLTFGQGTKLEIK
notes: also called H4 variant
B7: H1L2 (antibody, human IgG1, V domains shown)
VH: QIQLVQSGAEVKKPGASVKVSCKASGYTFTSYNMYWVRQAPGQRLEWMGYIDPYNGGSSYNLTFKGRVTITRDKSASTAYMELSSLRSEDTAVYYCARGYGNYKAWFAYWGQGTLVTVSS
VL: DIQMTQSPSSLSASVGDRVTITCKASQSVSNDVAWYQQKPGKAPKLLIYYASTRYTGVPDRFSGSGYGTDFTFTISSLQPEDIATYYCQQDYSSLTFGQGTKLEIK
notes: also called H1 variant
B8: H3L2 (antibody, human IgG1, V domains shown)
VH: QIQLVQSGAEVKKPGASVKVSCKASGYAFTSYNMYWVRQAPGQSLEWIGYIDPYNGGSSYNLTFKGKATITVDKSASTAYMELSSLRSEDTAVYYCARGYGNYKAWFAYWGQGTLVTVSS
VL: DIQMTQSPSSLSASVGDRVTITCKASQSVSNDVAWYQQKPGKAPKLLIYYASTRYTGVPDRFSGSGYGTDFTFTISSLQPEDIATYYCQQDYSSLTFGQGTKLEIK
notes: also called H3 variant
B9: H2L1 (antibody, human IgG1, V domains shown)
VH: QIQLVQSGAEVKKPGASVKVSCKASGYAFTSYNMYWVRQAPGQSLEWMGYIDPYNGGSSYNLTFKGRVTITVDKSASTAYMELSSLRSEDTAVYYCARGYGNYKAWFAYWGQGTLVTVSS
VL: DIQMTQSPSSLSASVGDRVTITCKASQSVSNDVAWYQQKPGKAPKLLIYYASTRYTGVPSRFSGSGYGTDFTFTISSLQPEDIATYYCQQDYSSLTFGQGTKLEIK
notes: also called H2 variant
B10: H4L4 (antibody, human IgG1, V domains shown)
VH: QIQLVQSGAEVKKPGASVKVSCKASGYAFASYNMYWVRQAPGQSLEWIGYIDPYNGGSSYNLTFKGKATLTVDKSASTAYMELSSLRSEDTAVYYCARGYGNYKAWFAYWGQGTLVTVSS
VL: DVQMTQSPSSLSASVGDRVTITCKASQSVSNDVAWYQQKPGKAPKLLIYYASTRYTGVPDRFSGSGYGTDFTFTISSLQPEDIATYFCQQDYSSLTFGQGTKLEIK
notes: also called H4 variant
B11: H4L3 (antibody, human IgG1, V domains shown)
VH: QIQLVQSGAEVKKPGASVKVSCKASGYAFASYNMYWVRQAPGQSLEWIGYIDPYNGGSSYNLTFKGKATLTVDKSASTAYMELSSLRSEDTAVYYCARGYGNYKAWFAYWGQGTLVTVSS
VL: DVQMTQSPSSLSASVGDRVTITCKASQSVSNDVAWYQQKPGKAPKLLIYYASTRYTGVPDRFSGSGYGTDFTFTISSLQPEDIATYYCQQDYSSLTFGQGTKLEIK
notes: also called H4 variant
B12: H2L3 (antibody, human IgG1, V domains shown)
VH: QIQLVQSGAEVKKPGASVKVSCKASGYAFTSYNMYWVRQAPGQSLEWMGYIDPYNGGSSYNLTFKGRVTITVDKSASTAYMELSSLRSEDTAVYYCARGYGNYKAWFAYWGQGTLVTVSS
VL: DVQMTQSPSSLSASVGDRVTITCKASQSVSNDVAWYQQKPGKAPKLLIYYASTRYTGVPDRFSGSGYGTDFTFTISSLQPEDIATYYCQQDYSSLTFGQGTKLEIK
notes: also called H2 variant
B13: H4L1 (antibody, human IgG1, V domains shown)
VH: QIQLVQSGAEVKKPGASVKVSCKASGYAFASYNMYWVRQAPGQSLEWIGYIDPYNGGSSYNLTFKGKATLTVDKSASTAYMELSSLRSEDTAVYYCARGYGNYKAWFAYWGQGTLVTVSS
VL: DIQMTQSPSSLSASVGDRVTITCKASQSVSNDVAWYQQKPGKAPKLLIYYASTRYTGVPSRFSGSGYGTDFTFTISSLQPEDIATYYCQQDYSSLTFGQGTKLEIK
notes: also called H4 variant
B14: H3L4 (antibody, human IgG1, V domains shown)
VH: QIQLVQSGAEVKKPGASVKVSCKASGYAFTSYNMYWVRQAPGQSLEWIGYIDPYNGGSSYNLTFKGKATITVDKSASTAYMELSSLRSEDTAVYYCARGYGNYKAWFAYWGQGTLVTVSS
VL: DVQMTQSPSSLSASVGDRVTITCKASQSVSNDVAWYQQKPGKAPKLLIYYASTRYTGVPDRFSGSGYGTDFTFTISSLQPEDIATYFCQQDYSSLTFGQGTKLEIK
notes: also called H3 variant
B15: H2L4 (antibody, human IgG1, V domains shown)
VH: QIQLVQSGAEVKKPGASVKVSCKASGYAFTSYNMYWVRQAPGQSLEWMGYIDPYNGGSSYNLTFKGRVTITVDKSASTAYMELSSLRSEDTAVYYCARGYGNYKAWFAYWGQGTLVTVSS
VL: DVQMTQSPSSLSASVGDRVTITCKASQSVSNDVAWYQQKPGKAPKLLIYYASTRYTGVPDRFSGSGYGTDFTFTISSLQPEDIATYFCQQDYSSLTFGQGTKLEIK
notes: also called H2 variant
B16: H3L3 (antibody, human IgG1, V domains shown)
VH: QIQLVQSGAEVKKPGASVKVSCKASGYAFTSYNMYWVRQAPGQSLEWIGYIDPYNGGSSYNLTFKGKATITVDKSASTAYMELSSLRSEDTAVYYCARGYGNYKAWFAYWGQGTLVTVSS
VL: DVQMTQSPSSLSASVGDRVTITCKASQSVSNDVAWYQQKPGKAPKLLIYYASTRYTGVPDRFSGSGYGTDFTFTISSLQPEDIATYYCQQDYSSLTFGQGTKLEIK
notes: also called H3 variant

Target: T1, recombinant human soluble CD73 protein (cloned huCD73 with C-terminal 6xHis tag) (human, UniProt P21589 27-547)
T1 construct: also called recombinant CD73 protein; CD73 recombinant protein
T1 sequence: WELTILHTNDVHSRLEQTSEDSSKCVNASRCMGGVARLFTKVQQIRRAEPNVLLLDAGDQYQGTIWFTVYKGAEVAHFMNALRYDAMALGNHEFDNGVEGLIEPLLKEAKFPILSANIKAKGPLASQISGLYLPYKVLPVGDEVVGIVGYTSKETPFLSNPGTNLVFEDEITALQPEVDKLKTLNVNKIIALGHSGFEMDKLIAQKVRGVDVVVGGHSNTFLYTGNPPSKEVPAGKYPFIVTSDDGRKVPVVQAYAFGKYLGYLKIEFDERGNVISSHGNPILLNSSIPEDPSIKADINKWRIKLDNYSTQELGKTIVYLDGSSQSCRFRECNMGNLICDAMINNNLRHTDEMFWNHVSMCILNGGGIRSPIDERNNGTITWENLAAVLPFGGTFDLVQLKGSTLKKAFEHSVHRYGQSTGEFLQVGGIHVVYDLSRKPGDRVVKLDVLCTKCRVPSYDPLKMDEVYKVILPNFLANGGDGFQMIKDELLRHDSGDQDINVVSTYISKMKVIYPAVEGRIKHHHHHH
Assay: SPR, recombinant CD73 protein
Method: SPR measurements were performed on a Biacore™ T200 apparatus at 25° C. Protein-A (GE Healthcare) was immobilized on a Sensor Chip CM5 (GE Healthcare). […] The entire sensorgram sets were fitted using the 1:1 kinetic binding model. Bivalent affinities and kinetic association and dissociation rate constants are calculated.

Row | Binder | binding result
1 | B1 | binds
2 | B2 | binds
3 | B3 | binds
4 | B4 | binds
5 | B5 | binds
6 | B6 | binds
7 | B7 | binds
8 | B8 | binds
9 | B9 | binds
10 | B10 | binds
11 | B11 | binds
12 | B12 | binds
13 | B13 | binds
14 | B14 | binds
15 | B15 | binds
16 | B16 | binds
